# No end group written: not given here.
# T1: human C-reactive protein (human, UniProt P02741 19-224)
# T1 construct: Biotinylated or labelled with Alexa Fluor 488; also called CRP; C-RP
# T1 sequence (looked up): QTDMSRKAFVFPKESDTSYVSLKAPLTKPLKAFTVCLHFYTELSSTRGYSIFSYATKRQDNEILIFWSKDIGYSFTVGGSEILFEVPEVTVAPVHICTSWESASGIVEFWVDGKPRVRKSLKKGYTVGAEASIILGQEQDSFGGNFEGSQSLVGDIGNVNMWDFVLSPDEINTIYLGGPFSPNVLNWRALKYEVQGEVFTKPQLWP
# B1: CRP-1 (peptide)
# peptide: EWACNDRGFNCQLQR
# modifications: not fully specified (bridges); cysteine pairing not given here
# notes: Insert only; said to be a cyclic peptide (two cysteines)
# Biological target: T2, streptavidin (UniProt P22629 37-163, limits assumed)
# T2 construct: Used as phycoerythrin conjugate or on coated beads; also called SA; streptavidin-phycoerythrin
# Test: whole-cell dissociation by flow cytometry, 1-2 uM biotin as competitor
# Experimental: The apparent binding affinities of a subset of the selected peptides were determined using flow cytometric analysis. […] See Daugherty, P. S., et al. (1998) Protein Eng. 11(9):825-832, which is herein incorporated by reference. […] See Daugherty, P. S., et al. (1998) Protein Eng. 11(9):825-832; and Feldhaus, M. J., et al. (2003) Nat. Biotechnol. 21(2): 163-170, which are herein incorporated by reference. […] Apparent dissociation rate constants (kdiss) were determined for streptavidin, using about 1 to about 2 μM biotin as a competitor to prevent re-binding.
# (§1) To obtain equilibrium binding curves, cells were labeled over a range of concentrations, e.g., about 0.1 to about 200 nM, of fluorescently conjugated target proteins (streptavidin-phycoerythrin or CRP-Alexa Fluor® 488) and analyzed by flow cytometry, as above. The corresponding mean fluorescence versus concentration data were fit to a monovalent binding isotherm to obtain the apparent KD. Dissociation rates of streptavidin-binding clones were measured in the presence of about 1 to about 2 μM biotin. Cells were labeled with 50 nM streptavidin-phycoerythrin for 30 minutes at room temperature. The cells were then pelleted, resuspended in PBS with biotin, and immediately analyzed by flow cytometry. Fluorescence data were collected continuously for about five minutes. The dissociation rate constants were then determined as described previously. See Daugherty, P. S., et al. (1998) Protein Eng. 11(9):825-832, which is herein incorporated by reference.
row,Binder,koff
1,ICSYVMYTTCFLRVY (Insert only) [SA-2],~0.001 s⁻¹
2,SITICWYTCMVQKTA (Insert only) [SA-10],~0.01 s⁻¹
3,VTSLCMNVCYSLTTY (Insert only) [SA-4],~0.001 s⁻¹
4,ADTICWYVCTISVHA (Insert only) [SA-11],~0.01 s⁻¹
5,LPVWCVMHVCLTSSR (Insert only) [SA-6],~0.001 s⁻¹
6,YWVCMNVCMYYTARQ (Insert only) [SA-5],~0.001 s⁻¹
7,IMMECFYVCTIANTQ (Insert only) [SA-8],~0.01 s⁻¹
8,RLEICQNVCYYLGTL (Insert only; also called SA-1 pep) [SA-1],~0.001 s⁻¹

# Biological target: T2, streptavidin
# Test: selection from the XCCX4CX7CX library displayed in loop 2 of OmpX
row,Binder,binding result
1,ICCHPQVCAWNRVFLCK [SEQ ID NO 269],binds
2,ACCHPQVCVMALPYHCL [SEQ ID NO 272],binds
3,YCCHPQVCFLGHRAACP [SEQ ID NO 267],binds
4,WCCHPQVCHRAMVRNCI [SEQ ID NO 271],binds
5,WCCHPQVCSLSLAYKCQ [SEQ ID NO 268],binds
6,LCCHPQVCASAGYYACY [SEQ ID NO 273],binds
7,LCCHPQNCVSFRHVECR [SEQ ID NO 274],binds
8,ICCHPQVCSGLNRFRCG [SEQ ID NO 270],binds
9,ICCHPQWCGLTVWWPCK [SEQ ID NO 275],binds

# Biological target: T2, streptavidin
# Test: apparent whole-cell KD, flow cytometry with streptavidin-phycoerythrin
# Experimental: as §1
row,Binder,Kd
1,ICSYVMYTTCFLRVY (Insert only) [SA-2],8 nM
2,RLEICQNVCYYLGTL (Insert only; also called SA-1 pep) [SA-1],10 nM

# Biological target: T1, human C-reactive protein
# Test: apparent whole-cell KD, flow cytometry with CRP-Alexa Fluor 488
# Experimental: as §1
row,Binder,Kd
1,B1,1 nM
2,FPIYNQRGFITLASP (Insert only) [CRP-2],3 nM
3,YPPRFQYYRFYYRGP (Insert only) [CRP-10],5 nM
4,MIFNSRGFLSLMSSG (Insert only) [CRP-6],8 nM

# Biological target: T1, human C-reactive protein
# Test: clones isolated by MACS and FACS from the E. coli OmpA loop 1 15-mer library
row,Binder,binding result
1,HMRWNTRGFLYPAMS (Insert only) [CRP-3],binds
2,RYIMNHRGFYIFVPR (Insert only) [CRP-4],binds
3,WTKLKNSRGFELQLD (Insert only) [CRP-8],binds
4,LMNWRGFMVPRESPK (Insert only) [CRP-7],binds
5,PYLNARGFSVTREQI (Insert only) [CRP-9],binds
6,TTCKYYLSCRWRKDL (Insert only) [CRP-13],binds
7,VRTWNDRGFQQSVDR (Insert only) [CRP-5],binds
8,TDFLSYYRVYRTPLQ (Insert only) [CRP-11],binds
9,TFMPSYYRSWGPPPT (Insert only) [CRP-12],binds

# Biological target: T3, human serum albumin (human, UniProt P02768 25-609)
# T3 construct: Biotinylated or FITC-conjugated; also called HSA
# Test: as above
row,Binder,binding result
1,NPFCSWYRWRNWCTK (Insert only) [HSA-1],binds
2,SYISTWLNFLFCGQS (Insert only) [HSA-3],binds
3,NNYSAWLRCLLRAYS (Insert only) [HSA-4],binds
4,RHLYCWTWRWCHFKD (Insert only) [HSA-2],binds

# Biological target: T2, streptavidin
# Test: selection from the X4CX3CX4 library displayed in loop 2 of OmpX
row,Binder,binding result
1,CMIICQNVCYRKC [SEQ ID NO 277],binds
2,KALVCQNVCYTMS [SEQ ID NO 278],binds
3,PTLICMNVCFYDQ [SEQ ID NO 281],binds
4,GTLVCMNFCYLSK [SEQ ID NO 280],binds
5,TRLICANLCWYAE [SEQ ID NO 284],binds
6,TYSWCANVCMHYS [SEQ ID NO 283],binds
7,SKWICQNVCYPGL [SEQ ID NO 279],binds
8,SHWFCVNVCFRIQ [SEQ ID NO 282],binds
9,QSLVCQNVCWMRE [SEQ ID NO 276],binds

# Biological target: T1, human C-reactive protein
# Test: selection from the E. coli display library
# Experimental: (§2) The library was first depleted of streptavidin binding peptides by incubation with streptavidin coated microbeads, e.g., from Qiagen, Inc. (Valencia, Calif.). Then the library was incubated with biotinylated human C-reactive protein at 10 nM final concentration, and two rounds of magnetic selection were used to enrich CRP binding peptides. […] Equilibrium binding affinities were measured in the whole cell format, by determining cell fluorescence at various concentrations of target CRP. See e.g. FIG. 17.
row,Binder,binding result
1,TTCKYYLSCRWRKDL [SEQ ID NO 246],binds
2,TDFLSYYRVYRTPLQ [SEQ ID NO 248],binds
3,LMNWRGFMVPRESPK [SEQ ID NO 251],binds
4,WTKLKNSRGFELQLD [SEQ ID NO 254],binds
5,RYIMNHRGFYIFVPR [SEQ ID NO 250],binds
6,TFMPSYYRSWGPPPT [SEQ ID NO 249],binds
7,PYLNARGFSVTREQI [SEQ ID NO 252],binds

# Biological target: T1, human C-reactive protein
# Test: equilibrium dissociation constant of a selected displayed peptide, whole-cell flow cytometry at various CRP concentrations
# Experimental: as §2
# as §1, with “11(9):825-832, which is herein incorporated by reference.” left out
row,Binder,Kd
1,B1,1.2 nM

# — patent US20190264194A1 (published 2019)
